B1: LINE1-full (parent)
chain: UACGUAGGUGGUUUUCCCCUGAUAGUGCUAAGGGGGCCUGGAAGUUUGGACUGGGCAGAGCUCAACACAGCGUGGCAAAGUGGCUGUGGCUAGACUGCCUCUCUGGAUUCCUCGUCACUCAGCAGGGCAUCUCUGAGAGAAAUGCC

Variants of: B1
Test: self-cleavage, relative activity (ratio to wild type); higher = more cleavage; in vitro, sequencing; the parent is a self-cleaving ribozyme

Going from U45G A92U to U1G C37G, the self-cleavage falls from 0.61 to 0.49.

Compared with A2G U109A, A31U U39A is higher in self-cleavage: 0.65 for the first, 1.05 for the second.

First: U143A C145U
Second: U9C G72A
The self-cleavage of the first is higher: 1.39 for the first, 1.34 for the second.

Compared with A77C U100C, A50G C95A is lower in self-cleavage: 1.53 for the first, 0.05 for the second.

Compared with U20C U109A, U14C U39A is lower in self-cleavage: 1.54 for the first, 1.12 for the second.

Compared with A78U A117G, U109C A124C is lower in self-cleavage: 2.93 for the first, 1.41 for the second.

Going from A22G C133U to C3U, the self-cleavage rises from 0.58 to 0.83.

Going from U85A A117U to C99A A138G, the self-cleavage rises from 0.09 to 0.88.

Going from G21U U119C to G97A A117U, the self-cleavage falls from 1.84 to 0.17.

Compared with A2G A79G, U39C G139U is lower in self-cleavage: 0.87 for the first, 0.42 for the second.

Going from A6G U26C to U26C U130C, the self-cleavage rises from 0.9 to 1.7.

Compared with A117G A138G, U15A U26A is lower in self-cleavage: 1.59 for the first, 0.5 for the second.

First: A69G A136C
Second: G33A A50G
The self-cleavage of the first is lower: 0.49 for the first, 1.02 for the second.

First: G4U A78G
Second: U46A A77U
The self-cleavage of the first is lower: 1.05 for the first, 1.24 for the second.

First: U23C A69U
Second: G4A A79G
The self-cleavage of the first is lower: 0.02 for the first, 1.3 for the second.

First: U5A A140U
Second: A69U A142G
The self-cleavage of the first is higher: 1.09 for the first, 0.06 for the second.

Going from U9G U119C to U47C U91A, the self-cleavage falls from 1.32 to 0.97.

First: U12C U109A
Second: U45G A107U
The self-cleavage of the first is higher: 1.49 for the first, 1.05 for the second.

Compared with A30G U100A, G80C A121G is lower in self-cleavage: 1.59 for the first, 1.18 for the second.

Compared with U73A U134A, U5C A142C is lower in self-cleavage: 1.28 for the first, 0.98 for the second.

Going from U20C U96C to A77U A78G, the self-cleavage rises from 0.08 to 0.68.

Going from U87A U112C to C63U U100C, the self-cleavage rises from 0.07 to 0.99.

Going from A31U U85C to U1C G70A, the self-cleavage falls from 0.28 to 0.04.

First: U26C G72U
Second: G89A A140G
The self-cleavage of the first is higher: 1.02 for the first, 0.06 for the second.

Compared with U87A U96C, U13C U85C is higher in self-cleavage: 0.12 for the first, 0.18 for the second.

Compared with C101U A124G, G8A A124G is lower in self-cleavage: 2.06 for the first, 1.04 for the second.

First: U39A A57U
Second: U12G A79U
The self-cleavage of the first is lower: 0.12 for the first, 1.3 for the second.

First: U62C C98A
Second: U62C C103A
The self-cleavage of the first is lower: 0.03 for the first, 0.04 for the second.

Compared with U73C A78C, G53C U96C is lower in self-cleavage: 0.77 for the first, 0.09 for the second.

Compared with A107G U143C, U39C A94G is lower in self-cleavage: 1.38 for the first, 0.11 for the second.

First: G21A U46C
Second: A22C A142G
The self-cleavage of the first is higher: 1.31 for the first, 1.27 for the second.

First: U62C C145U
Second: C76A
The self-cleavage of the first is lower: 0 for the first, 1.71 for the second.

First: U12C G34C
Second: U29C C98U
The self-cleavage of the first is higher: 1.34 for the first, 0.42 for the second.

Compared with U5C A24G, A77G U108C is higher in self-cleavage: 0.86 for the first, 2.51 for the second.

First: U46C U143C
Second: G8A U96A
The self-cleavage of the first is higher: 1.52 for the first, 0.08 for the second.

Compared with U81A U100C, A30U A79G is lower in self-cleavage: 2.98 for the first, 0.91 for the second.

Going from C61U U62G to A79G U143C, the self-cleavage rises from 0.01 to 1.47.

Compared with A6U C56U, U45C U87C is higher in self-cleavage: 0.21 for the first, 0.23 for the second.

Compared with C19U A77U, G48A is lower in self-cleavage: 1.3 for the first, 1.28 for the second.

Going from C84U A124U to G82U U112C, the self-cleavage rises from 0.18 to 1.18.

Compared with U115C A141G, G8A G34U is lower in self-cleavage: 1.76 for the first, 1.22 for the second.

First: G32C U115C
Second: U62A C103A
The self-cleavage of the first is higher: 1.56 for the first, 0.04 for the second.

Going from A43C A141U to C16A U47G, the self-cleavage falls from 1.46 to 0.75.

Compared with G48A U52A, U5A A94G is lower in self-cleavage: 1.22 for the first, 0.44 for the second.

First: U96A A124U
Second: G54U A129G
The self-cleavage of the first is lower: 0.06 for the first, 1.02 for the second.

Compared with A69U C118U, U9C A124C is higher in self-cleavage: 0.01 for the first, 2.53 for the second.

Compared with G33U A64U, A6U A57G is lower in self-cleavage: 0.41 for the first, 0 for the second.

First: U29C U91C
Second: A64U U130C
The self-cleavage of the first is higher: 1.38 for the first, 0.55 for the second.

First: U29A U85C
Second: G4A U12G
The self-cleavage of the first is lower: 0.29 for the first, 1.23 for the second.

First: U15A A142C
Second: C28U C63A
The self-cleavage of the first is higher: 1.71 for the first, 0.02 for the second.

First: U20C A79G
Second: G80U A124G
The self-cleavage of the first is lower: 1.5 for the first, 1.69 for the second.

First: U45C G88A
Second: U14C A140U
The self-cleavage of the first is lower: 0.08 for the first, 1.22 for the second.

First: A6U C145U
Second: U108G U143C
The self-cleavage of the first is lower: 0.48 for the first, 1.14 for the second.

Compared with U39G G74A, U73A G127A is higher in self-cleavage: 0.97 for the first, 1.58 for the second.

Going from U100C G127U to U108C A140U, the self-cleavage falls from 1.84 to 1.66.

Going from A77G C113U to U104C, the self-cleavage falls from 2.28 to 1.65.

First: G40A A59G
Second: U62C U112C
The self-cleavage of the first is higher: 0.06 for the first, 0.05 for the second.

Compared with A59U U96C, U20C U29C is higher in self-cleavage: 0.24 for the first, 1.27 for the second.

Going from U12C G41U to C95A G114A, the self-cleavage falls from 1.25 to 0.07.

First: G34A A57G
Second: A77U A124C
The self-cleavage of the first is lower: 1.21 for the first, 1.49 for the second.

First: A77U A92G
Second: C103A G135A
The self-cleavage of the first is lower: 0.05 for the first, 0.87 for the second.

Compared with A59U A138U, U13A U104A is higher in self-cleavage: 0.88 for the first, 0.94 for the second.

Going from U100C U108A to G53A U73G, the self-cleavage falls from 1.42 to 1.05.

Going from U9C C116G to A77G A124G, the self-cleavage rises from 1.21 to 1.9.

First: A30G A141C
Second: A50G A140U
The self-cleavage of the first is lower: 0.82 for the first, 0.93 for the second.

Compared with A22G U115C, U12A G21A is lower in self-cleavage: 1.18 for the first, 1.08 for the second.

Going from U15A U96C to A69U G126A, the self-cleavage falls from 0.41 to 0.05.

Going from A107G to A42G U73C, the self-cleavage rises from 1.46 to 1.5.

Going from U39C C71A to A57G U96A, the self-cleavage falls from 0.09 to 0.05.

Going from A140G A142C to A78G U87C, the self-cleavage falls from 1.4 to 0.15.

Compared with A2G U45C, U62A U143C is lower in self-cleavage: 1.19 for the first, 0.05 for the second.

Compared with C56U U96A, G8A A117C is higher in self-cleavage: 0.03 for the first, 1.03 for the second.

Going from A94U C113U to A24G U132A, the self-cleavage rises from 0.12 to 1.12.

Going from C16U U96A to U112A A117U, the self-cleavage rises from 0.03 to 1.36.

First: C120U G126A
Second: A79G U112A
The self-cleavage of the first is higher: 2.01 for the first, 1.54 for the second.

Going from C38U U47C to G75A A78G, the self-cleavage falls from 0.93 to 0.7.

Going from G70A to U26C C111A, the self-cleavage rises from 0.1 to 1.04.

Going from A64U U132C to U13A U143C, the self-cleavage rises from 0.49 to 1.51.

Compared with U85C G122A, U15A U47A is higher in self-cleavage: 0.14 for the first, 0.76 for the second.

Going from U5C G74U to C99A C113U, the self-cleavage falls from 0.38 to 0.27.

Going from A22G U109C to A57U G75A, the self-cleavage falls from 1.36 to 0.03.

First: U13C A124U
Second: G33U A94G
The self-cleavage of the first is higher: 1.28 for the first, 0.15 for the second.

Going from U39C U102A to G53U A57C, the self-cleavage falls from 1.03 to 0.01.

Work on U130C U134A yielded a self-cleavage of 1.

— the RNAGym collection of RNA variant scans (doi:10.7554/elife.90254)
